Here are results for 6 compounds from patent publication US20230039401A1, “COMPOSITIONS AND METHODS FOR TREATING NRP2-ASSOCIATED DISEASES” (aTyr Pharma, Inc., priority 2018, published 2023).

Ends that are not written are not given here.

Test [1] concerns the target T1, NRP2 (Homo sapiens, UniProt O60462).
T1 construct: Fc (C); purchased R&D Systems 2215-N2
Kind of test: SPR protein-protein interaction, human NRP2 over immobilized protein. The format is binding. Conditions: NRP2 flowed as analyte (50 nM or 20 nM); running buffer with 5 mM CaCl2. As to the method:
Protein-Protein Interaction studies. […] SPR experiments were conducted on a Bio-Rad ProteOn XPR36 Protein Interaction Array instrument. Proteins were immobilized on different channels of ProteOn GLC sensor chips through amine coupling. Analyte proteins were flowed over the immobilized proteins. The sensor chip surface was regenerated between each analyte run to remove interacting proteins. Data was double referenced against an interspot (untreated chip surface) and a blank surface (activated and deactivated for amine coupling).
Studies were performed to confirm the binding specificity of Neuropilin 2 (NRP2) to Fc-HRS(2-60) using orthologous methods to those used in the large scale Retrogenix screening (Example 1). In a series of experiments, Fc-HRS(2-60) and related proteins were immobilized on SPR chips, and NRP2 and related proteins were flowed as analytes. Upon confirmation of the NRP2:Fc-HRS(2-60) interaction, the dependence on divalent cations was tested as NRP2 is known to have Ca^2+ binding sites. The effects of previously characterized NRP2 ligands on the NRP2: Fc-HRS(2-60) interaction was also tested to determine if these known ligands have competitive effects on the Fc-HRS(2-60) interaction.

For test [2], the target named is T2, FCGR1A (Homo sapiens, UniProt P12314).
T2 construct: host or cells: HEK293
Kind of test: Retrogenix cell microarray screen, FCGR1A. The format is binding. Conditions: sequential staining method; 20 μg/ml test protein; expressed in HEK293 cells. As to the method: (§1) To identify potential interacting partners of HRS, and related HRS polypeptides, the Retrogenix cell microarray screening technology (Retrogenix Ltd., High Peak Rd, United Kingdom) was used to evaluate binding of a HRS-Fc fusion protein construct ([Fc-HRS(2-60)] to a library of approximately 4500 membrane bound human proteins individually expressed in HEK293 cells.
(§2) In brief, HEK293 cells were plated onto glass cover slides which have been pre-treated by the application of discrete expression vectors to enable reverse transfection and expression of each of the 4500 membrane proteins, to create a cell microarray. Transfection efficiencies were assessed via ZsGreen1 expression and exceeded the minimum threshold for all of the library members screened.
(§3) Use of a smaller HRS fragment with a Fc tag provided for high sensitivity detection via the use of an AlexaFluor647 labeled anti-human IgG Fc antibody (AF647) as the detection reagent, and readily available controls to confirm specificity. The detection antibody was used at screening concentrations of 2, 5, and 20 μg/ml, as more fully described below. […]
(§4) Primary hits (duplicate spots) were identified by analyzing fluorescence intensity in the AlexaFluor 647 and ZsGreen1 emission channels using the ImageQuant system, following standard fluorescent methodology. […]

The target in test [3] is T3, SLC13A3 (Homo sapiens, UniProt Q8WWT9).
T3 construct: host or cells: HEK293
T3 sequence (Q8WWT9 1-602): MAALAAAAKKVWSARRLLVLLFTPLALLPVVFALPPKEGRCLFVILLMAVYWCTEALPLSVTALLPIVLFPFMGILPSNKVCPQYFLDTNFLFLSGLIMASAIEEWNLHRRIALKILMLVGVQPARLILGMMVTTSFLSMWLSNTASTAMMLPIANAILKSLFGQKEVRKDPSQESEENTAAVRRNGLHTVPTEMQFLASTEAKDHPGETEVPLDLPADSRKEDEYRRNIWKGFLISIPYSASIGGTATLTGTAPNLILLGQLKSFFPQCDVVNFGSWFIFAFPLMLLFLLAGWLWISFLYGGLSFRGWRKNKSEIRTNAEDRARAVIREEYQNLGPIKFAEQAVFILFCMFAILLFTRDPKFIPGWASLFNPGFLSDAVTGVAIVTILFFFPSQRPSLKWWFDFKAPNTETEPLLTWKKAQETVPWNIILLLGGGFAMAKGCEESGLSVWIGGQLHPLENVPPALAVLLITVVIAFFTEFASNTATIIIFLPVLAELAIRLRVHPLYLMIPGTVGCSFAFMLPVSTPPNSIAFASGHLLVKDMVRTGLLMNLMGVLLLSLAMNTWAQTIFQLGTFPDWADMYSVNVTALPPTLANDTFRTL
Kind of test: Retrogenix cell microarray screen, SLC13A3. It counts as binding. Conditions: 20 μg/ml test protein; for Sequential incubation confirmatory screening result, SLC13A3: sequential staining method, expressed in HEK293 cells. As to the method:
as §1, §2
Use of a smaller HRS fragment with a Fc tag provided for high sensitivity detection via the use of an AlexaFluor647 labeled anti-human IgG Fc antibody (AF647) as the detection reagent, and readily available controls to confirm specificity. The detection antibody was used at screening concentrations of 2, 5, and 20 μg/ml, as more fully described below.
Test Protein was screened at a concentration of 20 μg/ml using two different screening formats; either a sequential staining method, or a pre-incubation staining method. Sequential staining involved, in brief, the sequential addition to the test cells, of the test protein and detection reagents, while the pre-incubation staining method involved the pre-incubation of the test protein with the detection reagents (2:1 molar ratio of test protein to detection antibody) to pre-form higher avidity complexes prior to the addition to the test cells.
as §4

The target in test [4] is T4, IGHG3 (Homo sapiens, UniProt P01860).
T4 construct: host or cells: HEK293
Briefly: Retrogenix cell microarray screen, IGHG3. The format is binding. Conditions: sequential staining method; 20 μg/ml test protein; expressed in HEK293 cells. As to the method:
as §1, §2, §3, §4

The target in test [5] is T5, FCGR2A (Homo sapiens, UniProt P12318).
T5 construct: host or cells: HEK293
T5 sequence (P12318 34-317): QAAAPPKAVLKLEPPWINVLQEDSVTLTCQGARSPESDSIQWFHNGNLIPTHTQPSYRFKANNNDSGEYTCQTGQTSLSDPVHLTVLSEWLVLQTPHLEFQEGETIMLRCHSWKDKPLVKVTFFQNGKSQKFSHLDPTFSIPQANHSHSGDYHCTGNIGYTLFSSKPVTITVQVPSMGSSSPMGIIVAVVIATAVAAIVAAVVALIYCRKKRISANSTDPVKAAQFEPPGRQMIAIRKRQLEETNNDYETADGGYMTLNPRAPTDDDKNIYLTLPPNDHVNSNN
Briefly: Retrogenix cell microarray screen, FCGR2A. It counts as binding. The note with it: sequential staining method; 20 μg/ml test protein; expressed in HEK293 cells. As to the method:
as §1, §2, §3, §4

The target of test [6] is T6, CD86 (Homo sapiens, UniProt P42081).
T6 construct: host or cells: HEK293
T6 sequence (P42081 24-329): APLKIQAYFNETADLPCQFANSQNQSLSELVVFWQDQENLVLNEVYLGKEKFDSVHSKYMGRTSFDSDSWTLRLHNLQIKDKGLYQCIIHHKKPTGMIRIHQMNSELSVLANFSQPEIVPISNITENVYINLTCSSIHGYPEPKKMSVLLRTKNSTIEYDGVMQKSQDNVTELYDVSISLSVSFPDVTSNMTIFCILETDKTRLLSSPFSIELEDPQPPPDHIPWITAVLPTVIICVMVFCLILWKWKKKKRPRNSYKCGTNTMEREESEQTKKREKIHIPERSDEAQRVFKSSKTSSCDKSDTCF
Kind of test: Retrogenix cell microarray screen, CD86. The format is binding. The note with it: 20 μg/ml test protein. As to the method:
as §1, §2, §3, §4

For test [7], the system named is murine model of sclerodermatous chronic graft vs. host disease (scl cGvHD). Briefly: Murine model of sclerodermatous chronic graft vs. host disease. The format is in vivo, mouse. Conditions: Fc-HRS(2-60) 0.4 mg/kg weekly IV, nintedanib daily oral, termination 8 weeks. As to the method:
This study was designed to investigate the in vivo potential of test compounds in a murine model of sclerodermatous chronic graft vs. host disease (scl cGvHD). A H-2^d minor histocompatibility antigen-mismatched model was employed. The model was prepared by allogenic transplantation of bone marrow cells and splenocytes of male donor B10.D2 mice into 8 week old female Balb/c mice which had been subject to whole body irradiation with 700 cGy 6 hours prior to transplantation.
Treatment Regimen. Fifty-six (56) Balb/c mice, (Janvier, Le Genest St. Isle, France, female, 8 weeks) were used as recipients in this study while B10.D2 mice (Jackson Laboratory, Bar Harbor, Me., USA, male) were euthanized to provide donor cells for allogenic transplantation. The animals were assigned to study groups of 8 mice, and housed in specific pathogen-free conditions with sterile food and water. In brief, animals received weekly intravenous injections of the Vehicle of Fc-HRS(2-60) (20 mM Histidine/125 mM NaCl/10 mM Methionine/3% Sucrose/0.02% PS20, pH 6.9) beginning on Day 7 post transplantation (groups 2 and 3) or Fc-HRS(2-60) (0.4 mg/kg) beginning on Day 7 (group 4) or Day 21 (group 6) post-transplantation. […] Tissues were examined histologically using common staining techniques and tissue homogenates were analyzed for hydroxyproline content as an index of collagen content. […]

Test [8] deals with T7, MS4A1 (Homo sapiens, UniProt P11836).
T7 construct: host or cells: HEK293
T7 sequence (P11836 1-297): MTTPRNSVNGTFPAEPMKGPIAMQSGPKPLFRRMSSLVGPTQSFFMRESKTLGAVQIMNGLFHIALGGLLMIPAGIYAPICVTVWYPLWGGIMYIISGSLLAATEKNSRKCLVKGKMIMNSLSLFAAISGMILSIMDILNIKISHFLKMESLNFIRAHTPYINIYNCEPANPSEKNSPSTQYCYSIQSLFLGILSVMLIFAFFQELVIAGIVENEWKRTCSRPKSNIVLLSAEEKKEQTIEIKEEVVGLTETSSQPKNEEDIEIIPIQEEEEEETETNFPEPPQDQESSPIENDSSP
Kind of test: Retrogenix cell microarray screen, MS4A1. It counts as binding. Conditions: 20 μg/ml test protein. As to the method:
as §1, §2, §3, §4

Where [9] appears, read: pre-incubation staining method (2:1 test protein to detection antibody), HEK293 cells.
Where [10] appears, read: sequential staining method, expressed in HEK293 cells.

T1 sequence (O60462 21-931): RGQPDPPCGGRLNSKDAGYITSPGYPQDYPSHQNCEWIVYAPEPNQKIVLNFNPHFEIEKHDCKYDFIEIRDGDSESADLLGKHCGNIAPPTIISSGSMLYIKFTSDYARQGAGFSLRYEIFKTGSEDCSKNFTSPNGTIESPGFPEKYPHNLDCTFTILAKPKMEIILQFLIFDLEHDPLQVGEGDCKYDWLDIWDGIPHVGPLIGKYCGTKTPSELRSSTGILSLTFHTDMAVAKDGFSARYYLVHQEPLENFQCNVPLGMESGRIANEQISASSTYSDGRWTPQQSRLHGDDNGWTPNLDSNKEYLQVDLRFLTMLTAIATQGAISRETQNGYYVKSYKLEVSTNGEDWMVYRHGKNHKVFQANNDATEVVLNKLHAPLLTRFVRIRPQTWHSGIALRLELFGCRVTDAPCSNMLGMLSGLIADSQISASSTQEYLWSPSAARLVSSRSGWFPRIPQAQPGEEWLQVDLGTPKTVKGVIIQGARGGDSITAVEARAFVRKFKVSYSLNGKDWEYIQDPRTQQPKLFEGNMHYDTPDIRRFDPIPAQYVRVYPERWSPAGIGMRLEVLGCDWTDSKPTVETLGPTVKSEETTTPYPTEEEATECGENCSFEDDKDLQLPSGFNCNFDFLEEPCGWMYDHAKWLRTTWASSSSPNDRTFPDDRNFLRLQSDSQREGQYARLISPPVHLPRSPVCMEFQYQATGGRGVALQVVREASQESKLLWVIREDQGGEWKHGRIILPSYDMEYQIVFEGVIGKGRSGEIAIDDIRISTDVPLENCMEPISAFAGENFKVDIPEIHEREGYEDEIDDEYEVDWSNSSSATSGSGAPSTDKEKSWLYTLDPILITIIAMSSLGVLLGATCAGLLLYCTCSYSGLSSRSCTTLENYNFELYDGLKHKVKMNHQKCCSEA
T4 sequence (P01860 whole entry): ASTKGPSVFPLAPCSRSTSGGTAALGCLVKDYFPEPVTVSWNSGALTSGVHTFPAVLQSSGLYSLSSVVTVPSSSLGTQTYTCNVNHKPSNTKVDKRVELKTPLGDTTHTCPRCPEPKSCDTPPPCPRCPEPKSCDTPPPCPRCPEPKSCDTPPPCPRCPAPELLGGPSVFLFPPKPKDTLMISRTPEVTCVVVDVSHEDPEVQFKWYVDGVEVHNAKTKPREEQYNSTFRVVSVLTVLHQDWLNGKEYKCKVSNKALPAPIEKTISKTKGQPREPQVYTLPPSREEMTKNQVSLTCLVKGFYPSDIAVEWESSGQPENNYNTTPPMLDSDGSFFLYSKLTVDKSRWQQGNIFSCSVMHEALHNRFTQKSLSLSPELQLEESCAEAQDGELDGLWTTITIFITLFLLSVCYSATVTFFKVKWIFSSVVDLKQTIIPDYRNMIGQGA
T2 sequence (P12314 16-374): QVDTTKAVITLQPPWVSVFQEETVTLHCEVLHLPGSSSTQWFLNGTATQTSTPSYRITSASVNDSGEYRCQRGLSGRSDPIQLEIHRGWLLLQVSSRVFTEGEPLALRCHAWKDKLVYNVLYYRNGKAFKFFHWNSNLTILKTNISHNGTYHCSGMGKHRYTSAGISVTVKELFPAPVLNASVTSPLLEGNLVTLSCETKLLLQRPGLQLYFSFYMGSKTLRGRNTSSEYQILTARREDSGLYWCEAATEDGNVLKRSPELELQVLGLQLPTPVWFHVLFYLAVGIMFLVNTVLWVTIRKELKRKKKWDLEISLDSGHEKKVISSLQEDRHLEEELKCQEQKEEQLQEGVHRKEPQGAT

For “GARS Fc-WHEP: Fc domain fused to the WHEP domain of GARS (VLAPLRLAVRQQGDLVRKLKEDKAPQVDVDKAVAELKARKRVLEAKELALQPKDDIV; not fully specified (N-terminus); also: fused to dimerising Fc domain (not included))”, the “binding of human NRP2 to immobilized protein (SPR)” value (“binding of human NRP2” for short) in test [1] is listed as “does not bind”.
Take CTLA4-FC: the “Sequential incubation confirmatory screening result, FCGR1A” value in test [2] was “NON SPEC”. Moreover, the “Sequential incubation confirmatory screening result, SLC13A3” value in test [3] was “NON SPEC”. For the same compound, the “Sequential incubation confirmatory screening result, IGHG3” value in test [4] is recorded as “STRONG”. Also, the “Sequential incubation confirmatory screening result, FCGR2A” value in test [5] is recorded as “NON SPEC”. Further, the “Pre-incubation confirmatory screening, Binding scoring, CD86” value in test [6] (setting [9]) is reported as “STRONG”. For the same compound, the “Sequential incubation confirmatory screening result, CD86” value in test [6] (setting [10]) is reported as “STRONG”.
For “MARS Fc-WHEP: Fc domain fused to the WHEP domain of MARS (QIQALMDEVTKQGNIVRELKAQKADKNEVAAEVAKLLDLKKQLAVAEGKPPEAPKGK; not fully specified (N-terminus); also: fused to dimerising Fc domain (not included))”, in test [1], the “binding of human NRP2” value is listed as “does not bind”.
For the compound `COC(=O)c1ccc2c(c1)NC(=O)/C2=C(\Nc1ccc(N(C)C(=O)CN2CCN(C)CC2)cc1)c1ccccc1` [nintedanib], the “measures of fibrosis in skin and lung” value in test [7] (intervention beginning 7 days post-transplantation) is given as “significantly ameliorated all measures of fibrosis”. The “fibrotic endpoints in skin and lung” value in test [7] (intervention beginning 21 days post-transplantation) was “significantly improved most endpoints measured”.
For RITUXIMAB, in test [2], the “Sequential incubation confirmatory screening result, FCGR1A” value is recorded as “NON SPEC”. In addition, the “Pre-incubation confirmatory screening, Binding scoring, SLC13A3” value in test [3] (setting [9]) is recorded as “INVERSE”. For the same compound, in test [3], the “Sequential incubation confirmatory screening result, SLC13A3” value was “INVERSE”. Besides, in test [4], the “Sequential incubation confirmatory screening result, IGHG3” value was “STRONG”. In test [5], the “Sequential incubation confirmatory screening result, FCGR2A” value is reported as “NON SPEC”. For the same compound, the “Pre-incubation confirmatory screening, Binding scoring, MS4A1” value in test [8] (setting [9]) is given as “STRONG”. Besides, the “Sequential incubation confirmatory screening result, MS4A1” value in test [8] (setting [10]) is “STRONG”.
On to “WARS WHEP: WHEP domain of WARS with a V5/His tag (SLLELFNSIATQGELVRSLKAGNASKDEIDSAVKMLVSLKMSYKAAAGEDYKADCPP; also: V5/His tag (not included))”, for which the “binding of human NRP2” value in test [1] was “does not bind”.
